Measured values reported in patent publication EP4538286A1 (Adlai Nortye Biopharma Co., Ltd., dated 2025).

T1: human CTLA4 protein (human, UniProt P16410 37-162, limits assumed)
T1 construct: bought protein coated on the ELISA plate; also called human CTLA4 antigen
T1 sequence (looked up): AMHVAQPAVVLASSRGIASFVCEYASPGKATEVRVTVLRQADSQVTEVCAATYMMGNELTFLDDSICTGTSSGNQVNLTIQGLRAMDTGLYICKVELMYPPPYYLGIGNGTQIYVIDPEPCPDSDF


How the values were obtained:
[1] = target: PD-L1 on TCR activator PD-L1-CHO cells (UniProt Q9NZQ7 19-290, limits assumed); assay: cell-based or functional assay
Chain of PD-L1 on TCR activator PD-L1-CHO cells (Q9NZQ7 19-290 limits assumed): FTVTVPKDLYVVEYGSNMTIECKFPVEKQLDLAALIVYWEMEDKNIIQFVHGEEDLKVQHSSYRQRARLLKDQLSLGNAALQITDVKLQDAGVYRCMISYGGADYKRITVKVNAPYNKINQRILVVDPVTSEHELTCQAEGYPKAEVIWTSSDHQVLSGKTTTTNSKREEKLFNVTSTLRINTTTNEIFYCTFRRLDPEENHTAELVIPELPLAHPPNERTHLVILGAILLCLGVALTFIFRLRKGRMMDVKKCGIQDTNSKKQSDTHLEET

human CTLA4 protein = target: T1, human CTLA4 protein; assay: ELISA, plate-coated human CTLA4
human CD28 protein = target: T2, human CD28 protein (human, UniProt P10747 19-152); assay: ELISA, plate-coated human CD28; parameters: binding strength @ 100nM: reference not given here
T2 construct: bought protein coated on the ELISA plate; also called human CD28 antigen
T2 sequence (P10747 19-152 limits assumed): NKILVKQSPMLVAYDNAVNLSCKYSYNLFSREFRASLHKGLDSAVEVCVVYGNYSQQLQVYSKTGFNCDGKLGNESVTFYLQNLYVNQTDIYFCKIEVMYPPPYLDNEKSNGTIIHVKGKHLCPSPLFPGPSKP

Row | Binder | EC50(nM), Jurkat-NFAT-Luc/CHO-PDL1 [1] [nM] | The highest induction relative to 10 nM sugemalimab [1] [%] | EC50 (human CTLA4 protein) [nM] | binding strength @ 20nM (human CTLA4 protein) [%] | EC50 (human CD28 protein) [nM] | binding strength @ 100nM (human CD28 protein) [%] | binding result (human CTLA4 protein)
1 | Abs-367 (other, the paragraph that names the antibody is followed; also called CD80 IgV mutant E35T/A71Q-sugemalimab fusion) heavy: VIHVTKEVKEVATLSCGHNVSVEELAQTRIYWQKTKKMVLTMMSGDMNIWPEYKNRTIFDITNNLSIVILQLRPSDEGTYECVVLKYEKDAFKREHLAEVTLSVKADGGGGSGGGGSGGGGSGGGGSGEVQLLESGGGLVQPGGSLRLSCAASGFTFSSYAMSWVRQAPGKGLEWVSGISGSGGFTYYADSVKGRFTISRDNSKNTLYLQMNSLRAEDTAVYYCAKPPRGYNYGPFDYWGQGTLVTVSSASTKGPSVFPLAPCSRSTSESTAALGCLVKDYFPEPVTVSWNSGALTSGVHTFPAVLQSSGLYSLSSVVTVPSSSLGTKTYTCNVDHKPSNTKVDKRVESKYGPPCPPCPAPEFLGGPSVFLFPPKPKDTLMISRTPEVTCVVVDVSQEDPEVQFNWYVDGVEVHNAKTKPREEQFNSTYRVVSVLAVLHQDWLNGKEYKCKVSNKGLPSSIEKTISKAKGQPREPQVYTLPPSQEEMTKNQVSLTCLVKGFYPSDIAVAWESNGQPENNYKTTPPVLDSDGSFFLYSRLTVDKSRWQEGNVFSCSVMHEALHAHYTQKSLSLSLGK light: SYVLTQPPSVSVAPGQTARITCGGNNIGSKSVHWYQQKPGQAPVLVVYDDSDRPSGIPERFSGSNSGNTATLTISRVEAGDEADYYCQVWDSSSDHVVFGGGTKLTVLGQPKAAPSVTLFPPSSEELQANKATLVCLISDFYPGAVTVAWKADSSPVKAGVETTTPSKQSNNKYAASSYLSLTPEQWKSHRSYSCQVTHEGSTVEKTVAPTECS | 1.84 | 113 | 26.5 | 640 | 27.7 | 700 | 
2 | Abs-368 (other, the paragraph that names the antibody is followed; also called CD80 IgV mutant E35T/A71T-sugemalimab fusion) heavy: VIHVTKEVKEVATLSCGHNVSVEELAQTRIYWQKTKKMVLTMMSGDMNIWPEYKNRTIFDITNNLSIVILTLRPSDEGTYECVVLKYEKDAFKREHLAEVTLSVKADGGGGSGGGGSGGGGSGGGGSGEVQLLESGGGLVQPGGSLRLSCAASGFTFSSYAMSWVRQAPGKGLEWVSGISGSGGFTYYADSVKGRFTISRDNSKNTLYLQMNSLRAEDTAVYYCAKPPRGYNYGPFDYWGQGTLVTVSSASTKGPSVFPLAPCSRSTSESTAALGCLVKDYFPEPVTVSWNSGALTSGVHTFPAVLQSSGLYSLSSVVTVPSSSLGTKTYTCNVDHKPSNTKVDKRVESKYGPPCPPCPAPEFLGGPSVFLFPPKPKDTLMISRTPEVTCVVVDVSQEDPEVQFNWYVDGVEVHNAKTKPREEQFNSTYRVVSVLAVLHQDWLNGKEYKCKVSNKGLPSSIEKTISKAKGQPREPQVYTLPPSQEEMTKNQVSLTCLVKGFYPSDIAVAWESNGQPENNYKTTPPVLDSDGSFFLYSRLTVDKSRWQEGNVFSCSVMHEALHAHYTQKSLSLSLGK light: SYVLTQPPSVSVAPGQTARITCGGNNIGSKSVHWYQQKPGQAPVLVVYDDSDRPSGIPERFSGSNSGNTATLTISRVEAGDEADYYCQVWDSSSDHVVFGGGTKLTVLGQPKAAPSVTLFPPSSEELQANKATLVCLISDFYPGAVTVAWKADSSPVKAGVETTTPSKQSNNKYAASSYLSLTPEQWKSHRSYSCQVTHEGSTVEKTVAPTECS | 0.52 | 138 |  |  | 28.7 | 700 | no binding
